Here are results for twelve substances from patent US5985599.

One assay addresses mouse beta1 Fc(gamma)R encoded by pFc113 (mouse). Nature of the assay: sheep anti-mouse Ig rosetting on the cells of Table 5.
The substance “irrelevant antibody (background control of Table 5)” showed a % rosette formation (background) of less than 5%.

The target of the next assay is dimeric human IgG1 (myeloma protein, chemically cross-linked) (human) [IgG part: P01857]. Nature of the assay: direct binding of 125I-dimeric human IgG1 to transfected COS-7 cells.
FcγRII Leu159-Ala (receptor) returned a Ka of 1e+07 M⁻¹ and a fold increase of binding over wild-type FcγRII of 10 fold.

FcγRII Phe160-Ala (receptor) gave a Ka of 1e+07 M⁻¹ and a fold increase of binding over wild-type FcγRII of 10 fold.

“human FcγRII (wild-type FcγRIIa) encoded by HFc3.0 (receptor)” showed a Ka of 1e+06 M⁻¹.

Another assay shares this target. Nature of the assay: direct binding of 125I-dimeric hIgG1 to transfected COS-7 cells, corrected for expression.
In turn, FcγRII Arg/His131-Ala (receptor) gave a percent binding compared to wild-type FcγRII (percent of wild-type) of 21.9 and a percent decrease of hIgG1-dimer binding of 80%.

Regarding FcγRII Asp133-Ala (receptor), the percent binding compared to wild-type FcγRII (percent of wild-type) stood at 114.

FcγRII Leu115-Ala (receptor) yielded a percent binding compared to wild-type FcγRII (percent of wild-type) of 20.6.

Consider FcγRII Lys113-Ala (receptor), for which the percent binding compared to wild-type FcγRII (percent of wild-type) stood at 15.9.

As for FcγRII Phe129-Ala (receptor), the percent binding compared to wild-type FcγRII (percent of wild-type) turned out to be 8.2 and the percent decrease of hIgG1-dimer binding is more than 90%.

Substance FcγRII Pro114-Ala (receptor) displayed a percent binding compared to wild-type FcγRII (percent of wild-type) of 53.5.

For the substance FcγRII Pro134-Ala (receptor), the percent binding compared to wild-type FcγRII (percent of wild-type) turned out to be 134.

As to FcγRII Val116-Ala (receptor), the percent binding compared to wild-type FcγRII (percent of wild-type) amounted to 73.5.
